Here are results for 20 molecules from US20260132182A1 (published 2026).

Starred links: 1 amine or outer side, 2 acyl side, 3 side chain; linkers in the order of their positions; H or OH if unused. Non-standard residues stand in square brackets, D forms with d. Groups on a side chain read outwards from the residue. *: point of attachment. C20 diacid = O=C(O)CCCCCCCCCCCCCCCCCCC(=O)*; C18 diacid = O=C(O)CCCCCCCCCCCCCCCCC(=O)*; C16 diacid = O=C(O)CCCCCCCCCCCCCCC(=O)*; γGlu = O=C(O)[C@H](CCC(=O)[*:2])N[*:1]; εLys = N[C@@H](CCCCN[*:1])C(=O)[*:2]; Trx = NC[C@H]1CC[C@H](C(=O)O)CC1; AEEA = NCCOCCOCC(=O)O; Aib = CC(C)(N)C(=O)O

The labels stand for the following.
T1: human amylin-3 (a) receptor (human, UniProt P30988 25-474; O60896 24-148)
T1 sequence (looked up) 1: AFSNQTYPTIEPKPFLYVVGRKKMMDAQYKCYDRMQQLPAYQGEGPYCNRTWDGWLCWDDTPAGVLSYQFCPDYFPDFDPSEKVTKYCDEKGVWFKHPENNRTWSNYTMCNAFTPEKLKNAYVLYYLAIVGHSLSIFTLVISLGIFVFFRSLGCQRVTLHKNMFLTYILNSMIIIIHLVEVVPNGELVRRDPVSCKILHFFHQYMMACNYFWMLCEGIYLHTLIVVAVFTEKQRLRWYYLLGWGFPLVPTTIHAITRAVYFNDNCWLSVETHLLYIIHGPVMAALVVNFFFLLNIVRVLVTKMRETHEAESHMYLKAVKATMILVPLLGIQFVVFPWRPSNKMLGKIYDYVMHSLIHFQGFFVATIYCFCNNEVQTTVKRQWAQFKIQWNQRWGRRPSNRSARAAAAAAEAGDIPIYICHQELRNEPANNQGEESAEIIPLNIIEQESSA
T1 sequence (looked up) 2: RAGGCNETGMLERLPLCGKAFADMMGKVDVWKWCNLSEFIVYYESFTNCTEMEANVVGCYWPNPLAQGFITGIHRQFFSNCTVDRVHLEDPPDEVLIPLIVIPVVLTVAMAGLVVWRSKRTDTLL

B1: Compound 0267 (peptide)
peptide: HWEGTFTSDVSSYLEEQAAREFIEWLVRGK([AEEA-AEEA-γGlu-Trx-C20 diacid])GEASELSTAALGRLSAELHELATLPRTETGSGSP-NH2
B2: Compound 0263 (peptide)
peptide: H[Aib]EGTFTSDVSSYLEEQAAREFIAWLVRGRK([AEEA-AEEA-γGlu-Trx-C20 diacid])EASELSTAALGRLSAELHELATLPRTETGSGSP-NH2
B3: Compound 0260 (peptide)
peptide: H[Aib]EGTFTSDK([AEEA-AEEA-γGlu-C16 diacid])SSYLEEQAAREFIAWLVRGRGGGGGEASELSTAALGRLSAELHELK([AEEA-AEEA-γGlu-C16 diacid])TLPRTETGSGSP-NH2
B4: Compound 0266 (peptide)
peptide: H[Aib]EGTFTSDK([AEEA-AEEA-γGlu-Trx-C20 diacid])SSYLEEQAAREFIAWLVRGRGGGGEASELSTAALGRLSAELHELATLPRTETGSGSP-NH2
B5: Compound 0280 (peptide)
peptide: H[Aib]EGTFTSDVSSYLEEQAAREFIAWLVRGK([AEEA-AEEA-γGlu-C16 diacid])GGGGGEASELSTAALGRLSAELHK([AEEA-AEEA-γGlu-C16 diacid])LATLPRTETGSGSP-NH2
B6: Compound 0042 (peptide)
peptide: H[Aib]EGTFTSDVSSYLEGQAAKEFIAWLVRGRK([AEEA-AEEA-γGlu-C18 diacid])GGEASELSTAALGRLSAELHELATLPRTETGSGSP-NH2
B7: Compound 0264 (peptide)
peptide: H[Aib]EGTFTSDVSSYLEEQAAREFIAWLVRGK([AEEA-AEEA-γGlu-Trx-C20 diacid])GGGGEASELSTAALGRLSAELHELATLPRTETGSGSP-NH2
B8: Compound 0285 (peptide)
peptide: H[Aib]EGTFTSDVSSYLEEQAAREFIAWLVRGK([AEEA-AEEA-γGlu-C16 diacid])GGGGGEASELSTAALGRLSAELHELATLPRTETGK([AEEA-AEEA-γGlu-C16 diacid])GSP-NH2
B9: Compound 0270 (peptide)
peptide: HWEGTFTSDVSSYLEEK([AEEA-AEEA-γGlu-Trx-C20 diacid])AAREFIEWLVRGRGEASELSTAALGRLSAELHELATLPRTETGSGSP-NH2
B10: Compound 0269 (peptide)
peptide: HWEGTFTSDVSSYLEEQAAREFIEWLVRGRK([AEEA-AEEA-γGlu-Trx-C20 diacid])GGGGEASELSTAALGRLSAELHELATLPRTETGSGSP-NH2
B11: Compound 0271 (peptide)
peptide: HWEGTFTSDVSSYLEEK([AEEA-AEEA-γGlu-C18 diacid])AAREFIEWLVRGRGEASELSTAALGRLSAELHELATLPRTETGSGSP-NH2
B12: Compound 0284 (peptide)
peptide: H[Aib]EGTFTSDVSSYLEEQAAREFIAWLVRGK([AEEA-AEEA-γGlu-C16 diacid])GGGGGEASELSTAALGRLSAELHELATLK([AEEA-AEEA-γGlu-C16 diacid])RTETGSGSP-NH2
B13: Compound 0265 (peptide)
peptide: H[Aib]EGTFTSDVSSYLEEK([AEEA-AEEA-γGlu-Trx-C20 diacid])AAREFIAWLVRGRGGGGEASELSTAALGRLSAELHELATLPRTETGSGSP-NH2
B14: Compound 0268 (peptide)
peptide: HWEGTFTSDVSSYLEEQAAREFIAWLVRGRK([AEEA-AEEA-γGlu-Trx-C20 diacid])GGGGEASELSTAALGRLSAELHELATLPRTETGSGSP-NH2
B15: Compound 0272 (peptide)
peptide: HWEGTFTSDK([AEEA-AEEA-γGlu-Trx-C20 diacid])SSYLEEQAAREFIEWLVRGRGEASELSTAALGRLSAELHELATLPRTETGSGSP-NH2
B16: Compound 0259 (peptide)
peptide: H[Aib]EGTFTSDK([AEEA-AEEA-γGlu-C16 diacid])SSYLEEQAAREFIAWLVRGRGGGGGEASELSTAALGRLSAELHK([AEEA-AEEA-γGlu-C16 diacid])LATLPRTETGSGSP-NH2
B17: Compound 0281 (peptide)
peptide: H[Aib]EGTFTSDVSSYLEEQAAREFIAWLVRGK([AEEA-AEEA-γGlu-C16 diacid])GGGGGEASELSTAALGRLSAELHELK([AEEA-AEEA-γGlu-C16 diacid])TLPRTETGSGSP-NH2
B18: Compound 0044 (peptide)
peptide: H[Aib]EGTFTSDVSSYLEGQAAK([εLys-AEEA-AEEA-γGlu-C18 diacid])EFIAWLVRGRGGGEASELSTAALGRLSAELHELATLPRTETGSGSP-NH2
B19: Compound 0273 (peptide)
peptide: HWEGTFTSDK([AEEA-AEEA-γGlu-C18 diacid])SSYLEEQAAREFIEWLVRGRGEASELSTAALGRLSAELHELATLPRTETGSGSP-NH2
B20: Compound 0261 (peptide)
peptide: H[Aib]EGTFTSDK([AEEA-AEEA-γGlu-C16 diacid])SSYLEEQAAREFIAWLVRGRGGGGGEASELSTAALGRLSAELHELATLK([AEEA-AEEA-γGlu-C16 diacid])RTETGSGSP-NH2

The first assay addresses T1, human amylin-3 (a) receptor. Nature of the assay: cell-based or functional assay.
Regarding B1, the “Human AmyR3 potency [EC50 (pM)]” value amounted to 45.3 pM.

Turning to B2, the “Human AmyR3 potency [EC50 (pM)]” value came to 25.2 pM.

Turning to B3, the “Human AmyR3 potency [EC50 (pM)]” value was found to be 41.8 pM.

B4: the “Human AmyR3 potency [EC50 (pM)]” value was determined as 8.5 pM.

For the molecule B5, the “Human AmyR3 potency [EC50 (pM)]” value was 18 pM.

In the case of B6, the “Human AmyR3 potency [EC50 (pM)]” value came to 10.8 pM.

For the molecule B7, the “Human AmyR3 potency [EC50 (pM)]” value came out at 11.7 pM.

For B8, the “Human AmyR3 potency [EC50 (pM)]” value came out at 78.9 pM.

Turning to B9, the “Human AmyR3 potency [EC50 (pM)]” value is 8.6 pM.

As for B10, the “Human AmyR3 potency [EC50 (pM)]” value came to 7.5 pM.

On to B11, for which the “Human AmyR3 potency [EC50 (pM)]” value was determined as 15.2 pM.

For the molecule B12, the “Human AmyR3 potency [EC50 (pM)]” value was determined as 32.8 pM.

Consider B13, for which the “Human AmyR3 potency [EC50 (pM)]” value was 8.1 pM.

Take B14: the “Human AmyR3 potency [EC50 (pM)]” value was found to be 14.4 pM.

For B15, the “Human AmyR3 potency [EC50 (pM)]” value is 11.3 pM.

For B16, the “Human AmyR3 potency [EC50 (pM)]” value was 12 pM.

Regarding B17, the “Human AmyR3 potency [EC50 (pM)]” value came to 114 pM.

As for B18, the “Human AmyR3 potency [EC50 (pM)]” value came out at 9.1 pM.

In the case of B19, the “Human AmyR3 potency [EC50 (pM)]” value was determined as 18 pM.

B20: the “Human AmyR3 potency [EC50 (pM)]” value came out at 23.9 pM.

Another assay addresses human GLP-1 receptor (human, UniProt P43220 24-463). Nature of the assay: cell-based or functional assay.
Turning to B1, the “Human GLP-1R potency [EC50 (pM)]” value stood at 28.5 pM.

With B2, the “Human GLP-1R potency [EC50 (pM)]” value came to 13.8 pM.

With B3, the “Human GLP-1R potency [EC50 (pM)]” value came out at 11.9 pM.

On to B4, for which the “Human GLP-1R potency [EC50 (pM)]” value amounted to 6.3 pM.

As to B5, the “Human GLP-1R potency [EC50 (pM)]” value is 34.3 pM.

B6: the “Human GLP-1R potency [EC50 (pM)]” value is 16.2 pM.

On to B7, for which the “Human GLP-1R potency [EC50 (pM)]” value is 6.5 pM.

Take B8: the “Human GLP-1R potency [EC50 (pM)]” value amounted to 19 pM.

For the molecule B9, the “Human GLP-1R potency [EC50 (pM)]” value is 6.3 pM.

As to B10, the “Human GLP-1R potency [EC50 (pM)]” value amounted to 7.7 pM.

Regarding B11, the “Human GLP-1R potency [EC50 (pM)]” value amounted to 4.6 pM.

On to B12, for which the “Human GLP-1R potency [EC50 (pM)]” value came out at 41.7 pM.

In the case of B13, the “Human GLP-1R potency [EC50 (pM)]” value stood at 6 pM.

Regarding B14, the “Human GLP-1R potency [EC50 (pM)]” value was found to be 26.4 pM.

On to B15, for which the “Human GLP-1R potency [EC50 (pM)]” value turned out to be 9.2 pM.

In the case of B16, the “Human GLP-1R potency [EC50 (pM)]” value came to 15.8 pM.

Take B17: the “Human GLP-1R potency [EC50 (pM)]” value was 35.2 pM.

With B18, the “Human GLP-1R potency [EC50 (pM)]” value was 16 pM.

As to B19, the “Human GLP-1R potency [EC50 (pM)]” value stood at 24.9 pM.

Regarding B20, the “Human GLP-1R potency [EC50 (pM)]” value was 17.4 pM.
